The record followed here is publication PMC4022731 (PLoS Pathogens, 2014).

In the assay the target is Flag-tagged HCMV gp68 expressed by recombinant vaccinia virus (human cytomegalovirus, UniProt P16739). The assay is described as follows: co-IP. The following applies: one partner purified.
Flag-tagged HCMV gp68 expressed by recombinant vaccinia virus, sequence (P16739 24-345): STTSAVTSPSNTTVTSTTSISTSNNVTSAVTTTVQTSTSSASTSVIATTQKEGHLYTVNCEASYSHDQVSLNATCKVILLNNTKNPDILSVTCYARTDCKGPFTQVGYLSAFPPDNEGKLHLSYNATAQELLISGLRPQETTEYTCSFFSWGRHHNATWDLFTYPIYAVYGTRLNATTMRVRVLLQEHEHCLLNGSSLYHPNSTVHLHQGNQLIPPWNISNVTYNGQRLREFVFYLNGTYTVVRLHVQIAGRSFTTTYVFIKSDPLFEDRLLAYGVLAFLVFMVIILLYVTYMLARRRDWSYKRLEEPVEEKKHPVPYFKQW

B1: palivizumab (antibody, V domains shown)
VH: QVTLRESGPALVKPTQTLTLTCTFSGFSLSTSGMSVGWIRQPPGKALEWLADIWWDDKKDYNPSLKSRLTISKDTSKNQVVLKVTNMDPADTATYYCARSMITNWYFDVWGAGTTVTVSS
VL: DIQMTQSPSTLSASVGDRVTITCKCQLSVGYMHWYQQKPGKAPKLLIYDTSKLASGVPSRFSGSGSGTEFTLTISSLQPDDFATYYCFQGSGYPFTFGGGTKLEIK
notes: also called IgG1 isotype control antibody; source: bought: MedImmune
Consider B1, for which the binding result is on record as “binds”.
